Test results published in the supplement of paper PMC9170038.

Test system: MS2 coat protein
Experiment: apparent KD of MS2 coat protein; designed switch direction (-1 OFF switch, 1 ON switch): -1; higher = weaker reporter binding
How it was run: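 Normalised cluster fluorescence was curve-fitted, and each design's median over clusters is its apparent KD. Before this, SNAP-549-labelled MS2 coat protein was titrated from 0.7 or 1.5 nM, doubling to 3 µM, over RNA switches transcribed on Illumina chips by stalled E. coli RNA polymerase. Titrations had no input, 200 uM small-molecule ligand, or an oligonucleotide input, and steps lasted 0.8–1.5 h (lowest) to 10–20 min (highest).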

[1] = Eterna round: R95, input ligand: microRNA oligo, concentration not stated
[2] = input ligand: microRNA oligo, concentration not stated
[3] = Eterna round: R95, input ligand: FMN 200 uM
[4] = Eterna round: R95, input ligand: none

Sequence	apparent KD of MS2 coat protein [1]	apparent KD of MS2 coat protein (input ligand: FMN 200 uM)	apparent KD of MS2 coat protein [2]	apparent KD of MS2 coat protein (input ligand: none)	apparent KD of MS2 coat protein [3]	apparent KD of MS2 coat protein [4]
AUACCACGAGGAUAUCGUCUAUUUUACAUGAGGAUCACCCAUGUUAUCUUUGUAAUGUUUCGAGAAGGCGUGUUUU [JR_E5_Sub080] (puzzle: Exclusion 5)	0.0317 µM					
CUAGGGCACAAUUAAGCGCCCUAACAUGAGGAUCACCCAUGUCAGGAUAUGUAGGCAAAGACCCUACAGAAGGGACAUGUCCUA [Artileza] (Eterna round: R96, puzzle: Exclusion NG 3)		0.393 µM	0.0463 µM	0.0692 µM		
AGGUGACAUGAGGAUCACCCAUGUAAGGAUAUACGGUUAGUGGAGAGUUGGAAGAGAGGUAGAAGGUACGGAGC [JR_Exclu1_Sub059] (puzzle: Exclusion 1)	0.197 µM					
ACUAAUUGAGGAUAUACAUUGAUUUACAUGAGGAUCACCCAUGUUCAAACAUGUAUUUAUGUAGAAGGCAGAAGAA [JR_Ex5_Sub065] (Eterna round: R97, puzzle: Exclusion 5)		0.023 µM		0.0175 µM		
AUAAAUCAUGUAGGAUAUGCGUGGCAAAGCUAUGCAGAAGGACAUGAGGAUCACCCAUGUGCUUCCGUCUGGGAACAGACGGUA [Mat - Exclusion NG 1 - Mod of JL - D34] (Eterna round: R96, puzzle: Exclusion NG 1)		0.243 µM	0.0677 µM	0.0849 µM		
ACUUAUUGAGGAUAUACAUAGAUUUACAUGAGGAUCACCCAUGUUCCUCUAUGUAUAUAUGUAGAAGGCAGAAGAA [JL-ex5-4.32 Malcolm mod] (Eterna round: R97, puzzle: Exclusion 5)		0.0267 µM		0.0157 µM		
CCCUUGUGAGGAUAUUCUUAAAAUGCUAACCACAAUUUUAUGAAGAAGGCACAUGAGGAUCACCCAUGUUUCUC [mod1] (Eterna round: R97, puzzle: Exclusion 4)		0.0805 µM		0.0964 µM		
CGCAUACUAGGAUAUACAUGAGGAUCACCCAUGUCGCCGGGCCCACUCAUACUAAAACGUAGAAGGAGUUUGCC [Enlalari] (puzzle: Exclusion 3)	0.0165 µM					
ACAUGACAUGAGGAUCACCCAUGUUAGGAUAUCCCUCGUCCUGACUGAACGUCGGAAUGGAGAAGGAGCAUGGC [Eternabot (L2) Solution 88] (Eterna round: R97, puzzle: Exclusion 1)		0.0471 µM		0.0458 µM		
ACAUGAGGAUCACCCAUGUCGAGUACAUGAGGAUCACCCAUGUAGGAUAUGGUUCGCUUUGCGUGCUAGAAGGAUAUGUGUUGC [salish99_ExNG3_r04_509] (Eterna round: R96, puzzle: Exclusion NG 3)		0.351 µM	0.199 µM	0.241 µM		
GUGUGCAGACGGAGAUCCUACAUGAGGAUCACCCAUGUCUCACUAGCUUUUUGCUCGUCUUAUCCUCCUCUGUUCUC [Elimod 26 - Jieux - Sensor, turn-off variant 1] (Eterna round: R97, puzzle: Sensor, turn-off variant 1)		0.295 µM		0.497 µM		
CGAUGAGGAGUGAGGAUAUCGUGUUCGAAAGAACGUGAGAAGGCACAUGAGGAUCACCCAUGUGAUUCUUAUCG [Omei Ex4B A19] (Eterna round: R97, puzzle: Brourd's mod of Exclusion 4)		0.077 µM		0.0255 µM		
UUCGUACAGCUUUGCUGUACGCGUACAUGAGGAUCACCCAUGUAGGAUAUGGUAGGCAAAGCUUACUAGAAGGAUAGAGUGAUC [Mat - Exclusion NG 3 - Mod of JL - D75] (Eterna round: R96, puzzle: Exclusion NG 3)		0.244 µM	0.0962 µM	0.238 µM		
CGUCUGUAAGGAUAUGGUAGCAUCAACAUGAGGAUCACCCAUGUUACAUGGGACUAGUGAUUAGAAGGUACGAACG [EX5 #56] (Eterna round: R97, puzzle: Exclusion 5)		0.0585 µM		0.0806 µM		
UAGUGAAACACAGGAUAUCGCCUCUUAUUACAUGAGGAUCACCCAUGUUUAGUUAGUUACAUGUACGAGAAGGGUGAAGUAGUU [JR_ExcNG2_Sub040] (Eterna round: R96, puzzle: Exclusion NG 2)		1.11 µM	0.674 µM	1.43 µM		
UUUUUUUUGCGAGGAUAUGCAUUUAGUUAGUUAGCAGAAGGCGCGUUUCUAUACUCCUCUUCUUACAUGAGGAUCACCCAUGUU [JR_ExcNG1_Sub033] (Eterna round: R96, puzzle: Exclusion NG 1)		0.0699 µM	0.0345 µM	0.0351 µM		
GGCUGACAUGUAGGAUAUCUGCACGUGUAGUGCAGAGAAGGACAUGAGGAUCACCCAUGUAUAGCGACUUCGGUCGCAACAGCC [ENG1/2-A3] (Eterna round: R96, puzzle: Exclusion NG 1)			0.0359 µM			

Sequence	apparent KD of MS2 coat protein [1]	apparent KD of MS2 coat protein (input ligand: FMN 200 uM)	apparent KD of MS2 coat protein [2]	apparent KD of MS2 coat protein (input ligand: none)	apparent KD of MS2 coat protein [3]	apparent KD of MS2 coat protein [4]
GCGCGAAGCAAGGAUAUCCCAGGGAGCUCCCUGGGAGAAGGUGCCACAUGAGGAUCACCCAUGUGGUGAUCCUG [eternacac ex6r4 sub16] (Eterna round: R97, puzzle: Exclusion 6)		0.0256 µM		0.0177 µM		
GCGCCAUCGUGAGAUGGCGUAAUUACAUGAGGAUCACCCAUGUAGGAUAUCGAUUGCUUUGCAGUCGAGAAGGGCAUGUUUUGU [JL ENG3 3.85] (Eterna round: R96, puzzle: Exclusion NG 3)		0.0333 µM	0.0264 µM	0.0315 µM		
ACUAGAUGAGGAUAUGCAUAUUUUCGUGUUCUUCUAGGUUAACAUGAGGAUCACCCAUGUAGAAGGCGUCUAUA [Exclusion 2 - 22] (puzzle: Exclusion 2)	0.0213 µM					
UGCCUACGUGUGAGGAUAUCAAGGUUUCCACACUAUGAGAAGGUACAUGAGGAUCACCCAUGUUUAGAUGAGCC [Eternabot (L2) Solution 43] (Eterna round: R97, puzzle: Brourd's mod of Exclusion 4)		0.0742 µM		0.0746 µM		
AAACGUAGACAGGAUAUCUGCGCCCUUGGUUAAAGAGAAGGGUCUACAUGAGGAUCACCCAUGUGGUGUAACUC [Dibedididi] (puzzle: Exclusion 6)	0.0184 µM				0.0138 µM	0.0236 µM
GCAAGCUUAAUCAGUAUGAACAUGAGGAUCACCCAUGUAUAAGGUAAUUCUUUUGGGUUUUUUAUUGCUCGUCUUAU [JR_STOV1_Sub027] (Eterna round: R97, puzzle: Sensor, turn-off variant 1)		0.245 µM		0.297 µM		
CUAGCGAUUGUAGGAUAUCGGACUGUUUCAGUCUGAGAAGGACAUGAGGAUCACCCAUGUGGAGGAUCGUGAGAUCCACGCUAG [JL ENG1 3.81] (Eterna round: R96, puzzle: Exclusion NG 1)		0.137 µM	0.0246 µM	0.0345 µM		
AAGAAACAUGAGGAUCACCCAUGUGAGGAUAUGAAAAAGAAAAGAAAAGAAAGAAGAAUCAGAAGGCACAAAGA [salish99-ex1_r3_080] (puzzle: Exclusion 1)	0.0222 µM				0.0269 µM	0.0271 µM
AAGAAACAUGAGGAUCACCCAUGUGAGGAUAUGAGCAAGAAAAGAAAAGAAAGAAGAAUCAGAAGGCACAAAGG [salish99-ex1_r3_050] (Eterna round: R96, puzzle: Exclusion 1)		0.0685 µM	0.0317 µM	0.0374 µM		
AGCAGACGAGGAUAUGAUCAAUAAUACAUGAGGAUCACCCAUGUAAUACUGAUCCAUGGAUCAGAAGGCGUCUGCU [E5/5-A1] (Eterna round: R97, puzzle: Exclusion 5)		0.0235 µM		0.0164 µM		
AAGAUGUUAGGAUAUCGAAGGUUGUGGCAGGCGGGAAUUUGCGAGAAGGAACAUGAGGAUCACCCAUGUGAAAU [JR_Exclu4_Sub043] (puzzle: Exclusion 4)	0.0197 µM					
GGAUCGAAAGUGAGGAUAUACCACUGGAUACAGUGGUAGAAGGCACAUGAGGAUCACCCAUGUCUCUACGAUCC [Fiskers BMX 4 - 42] (puzzle: Brourd's mod of Exclusion 4)	0.013 µM				0.0399 µM	0.015 µM
CUGUUUGUAGGAUAUACAUGCGGAACCCUCCUCGUGUGAAGACAUGAGGAUCACCCAUGUAGAAGGACGAGGAG [Angeer] (Eterna round: R97, puzzle: Exclusion 2)		0.016 µM		0.0163 µM		
CCAGUGUGCUUCAGGACAUGAGGAUCACCCAUGUUCGCAAAAUAGGAUAUUGGGUGUAGGCCGCGCAAGAAGGGUUAUGCGAAC [Disobeus] (Eterna round: R96, puzzle: Exclusion NG 3)		0.117 µM	0.0798 µM	0.0834 µM		
UCGGGAAGAGGAUAUACAUAGAAAUAGAUUCAUGUAAAACUACAUGAGGAUCACCCAUGUAGAAGGCUUUCCGU [Mat - Exclusion 2 - JL Mod - D55] (Eterna round: R97, puzzle: Exclusion 2)		0.146 µM		0.0242 µM		
GGGAAGUGAGGAUAUAUGAGAGAGGCUGGACCGGAUGAGAAGUAGAAGGCACAUGAGGAUCACCCAUGUAGGGA [JR_Exclu4_Sub026] (puzzle: Exclusion 4)	0.152 µM				0.13 µM	0.209 µM
UUUUGCAAGCAAAUUGUCAACAUGAGGAUCACCCAUGUGGAAGCCUUGGAGGGUGGGACCGUAAGUAGAGCUCGUUU [Eternabot (L2) Solution 34] (Eterna round: R97, puzzle: Sensor, turn-off variant 1)		0.0381 µM		0.0392 µM		
